These results are taken from patent US20120214741.

The target of this data set is VDAC of isolated rat mitochondria (liver, brain) (UniProt Q9Z2L0).
VDAC of isolated rat mitochondria (liver, brain), sequence (Q9Z2L0 2-283): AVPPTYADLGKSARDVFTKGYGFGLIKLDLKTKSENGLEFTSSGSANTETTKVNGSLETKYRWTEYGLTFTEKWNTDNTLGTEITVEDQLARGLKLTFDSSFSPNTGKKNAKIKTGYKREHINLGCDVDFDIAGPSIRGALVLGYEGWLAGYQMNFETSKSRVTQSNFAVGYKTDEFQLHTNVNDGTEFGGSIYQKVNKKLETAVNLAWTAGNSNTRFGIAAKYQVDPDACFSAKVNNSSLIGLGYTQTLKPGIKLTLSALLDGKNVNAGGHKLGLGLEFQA

Consider yeast HK, for which the “PTP opening (swelling of energized mitochondria)” value is reported as “The failure of non-binding species of HK, such as yeast HK, or trypsin- or chymotrypsin-treated HK-I (FIG. 2D) to prevent PTP opening”.
